Target: GltPh-K55C-A364C cross-linked with mercury (Pyrococcus horikoshii) (UniProt O59010)
Test: crystal structure; GltPh^in crystals grown at 4°C in 14–20% PEG 400, 0.1 M potassium citrate pH 5.0–6.0, with lipids and n-decyl-α-D-maltopyranoside; soaked in Tl+ or alkali-free solutions; trimer with three protomers

stoichiometry N: 3
Substance: GltPh-K55C-A364C cross-linked with mercury (from UniProt O59010 1-425) (natural protein)
